Changes are numbered by the printed parent chain.
Experiments:
Assay in all cases: EMSA
[1] = biological target: T1, RB69 DNA polymerase gp43 PolY567A Exo+ (bacteriophage RB69, UniProt Q38087 1-903, Y567A)
T1 sequence: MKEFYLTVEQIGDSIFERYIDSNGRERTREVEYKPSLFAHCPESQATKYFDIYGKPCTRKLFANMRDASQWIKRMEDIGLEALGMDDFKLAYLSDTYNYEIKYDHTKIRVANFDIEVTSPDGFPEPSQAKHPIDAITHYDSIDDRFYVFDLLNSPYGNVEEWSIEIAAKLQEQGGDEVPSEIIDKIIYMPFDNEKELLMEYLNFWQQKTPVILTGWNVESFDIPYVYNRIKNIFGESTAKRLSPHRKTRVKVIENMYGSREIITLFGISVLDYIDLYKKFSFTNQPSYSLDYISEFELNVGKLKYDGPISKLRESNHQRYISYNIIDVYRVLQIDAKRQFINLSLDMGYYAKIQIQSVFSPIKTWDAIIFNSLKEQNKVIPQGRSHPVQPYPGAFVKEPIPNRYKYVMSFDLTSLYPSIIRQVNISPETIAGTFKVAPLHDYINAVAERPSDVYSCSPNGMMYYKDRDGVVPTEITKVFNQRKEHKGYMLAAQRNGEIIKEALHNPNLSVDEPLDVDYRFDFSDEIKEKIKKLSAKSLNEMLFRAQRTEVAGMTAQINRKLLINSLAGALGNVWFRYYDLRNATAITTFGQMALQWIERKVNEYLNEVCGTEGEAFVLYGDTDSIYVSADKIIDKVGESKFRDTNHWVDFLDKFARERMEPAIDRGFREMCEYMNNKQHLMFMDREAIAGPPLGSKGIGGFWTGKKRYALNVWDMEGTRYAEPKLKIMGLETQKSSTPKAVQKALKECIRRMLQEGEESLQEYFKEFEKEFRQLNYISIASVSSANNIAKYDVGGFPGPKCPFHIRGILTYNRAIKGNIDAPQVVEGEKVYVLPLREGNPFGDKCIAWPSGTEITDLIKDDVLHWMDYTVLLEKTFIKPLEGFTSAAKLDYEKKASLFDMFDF

[2] = biological target: T2, RB69 DNA polymerase gp43 Pol+ Exo+ (wild type) (bacteriophage RB69, UniProt Q38087 1-903)
T2 sequence: T1 sequence with A567Y

[3] = biological target: T3, RB69 DNA polymerase gp43 PolS565G Exo+ (bacteriophage RB69, UniProt Q38087 1-903, S565G)
T3 sequence: T1 sequence with S565G, A567Y

[4] = biological target: T4, RB69 DNA polymerase gp43 PolS565G/Y567A Exo+ (bacteriophage RB69, UniProt Q38087 1-903, S565G;Y567A)
T4 sequence: T1 sequence with S565G

B1: mismatched dsDNA primer/template 20/30-mer, terminal T·G (dsDNA)
DNA 1: ATGTGCTGCAAGGCGATTAG
DNA 2: GTTACCCAACTTAATCGCCTTGCAGCACAT
Binder B1 has a Kd [1] of 25.7 ± 3.2 nM, a Kd [2] of 38.2 ± 4.3 nM and a Kd [3] of 132 ± 5.7 nM. The Kd [4] was 79.9 ± 4.8 nM.

B2: normal dsDNA primer/template 20/35-mer (dsDNA)
DNA 1: TTTGATGTATTATCAATTGT
DNA 2: TGCCTTCGTAATCTTACAATTGATAATACATCAAA
Binder B2 has a Kd [1] of 13.2 ± 1.4 nM, a Kd [2] of 6.9 ± 2.1 nM and a Kd [3] of 38.9 ± 3.4 nM. The Kd [4] was 29.9 ± 1.9 nM.

Source: PMC2991499
